Assay [1] concerns the target T1, BCMA-Fc蛋白 (human, UniProt Q02223 1-54).
T1 construct: Captured on a CM5 chip through anti-human Fc antibody for SPR; also called BCMA抗原; not shown: Fc part, captured by anti-human Fc antibody
T1 sequence (looked up): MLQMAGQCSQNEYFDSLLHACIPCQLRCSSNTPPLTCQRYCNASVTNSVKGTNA
As to the kind of experiment: SPR, Biacore X100, BCMA-Fc captured by anti-human Fc on CM5, 2A9 as analyte. For orientation: SPR reads the build-up and loss of mass on a sensor chip optically.

Assay [2] deals with T1, BCMA-Fc蛋白. Briefly: SPR, Biacore X100, BCMA-Fc captured by anti-human Fc on CM5, 2A9-MICA as analyte.
The next assay deals with T2, NKG2D-Fc蛋白 (UniProt P26718 78-216, limits assumed).
T2 construct: Captured on a CM5 chip through anti-human Fc antibody for SPR; not shown: Fc part, captured by anti-human Fc antibody
T2 sequence (looked up): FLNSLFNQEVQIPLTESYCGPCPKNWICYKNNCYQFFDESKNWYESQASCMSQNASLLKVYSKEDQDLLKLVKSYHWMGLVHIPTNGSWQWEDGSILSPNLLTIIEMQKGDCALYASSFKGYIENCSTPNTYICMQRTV
As to the kind of experiment: SPR, Biacore X100, NKG2D-Fc captured by anti-human Fc on CM5, 2A9-MICA as analyte.

B1: 抗人BCMA单链抗体2A9 (scFv)
scFv: ASMAEVQLQQSGAELVKPGASVKLSCTASGFNIKDTYMHWVKQRPEQGLEWIGRIDPANGNTKYDPKFQGKATITADTSSNTAYLQLSSLTSEDTAVYYCARWVYWGQGTTLTVSTGGGGSDVVMTQSPSSMYASLGERVTITCKASQDINSYLSWFQQKPGKSPKTLIYRANRLVDGVPSRFSGSGSGQDYSLTISSLEYEDMGIYYCLQYDEFPYTFGGGTKLEIKR
notes: Parental scFv from phage display; also called rG7S
What is called Kd is the equilibrium constant for the complex coming apart. A lower Kd goes with higher affinity. For the molecule B1, the Kd in the assay with BCMA-Fc蛋白 [1] is 34.6 nM.

B2: 双特异性抗体2A9-MICA (anti-human BCMA scFv 2A9 fused to human MICA extracellular regions 1-3) (bispecific antibody)
chain: MAEVQLQQSGAELVKPGASVKLSCTASGFNIKDTYMHWVKQRPEQGLEWIGRIDPANGNTKYDPKFQGKATITADTSSNTAYLQLSSLTSEDTAVYYCARWVYWGQGTTLTVSTGGGGSDVVMTQSPSSMYASLGERVTITCKASQDINSYLSWFQQKPGKSPKTLIYRANRLVDGVPSRFSGSGSGQDYSLTISSLEYEDMGIYYCLQYDEFPYTFGGGTKLEIKRGSGGGGSEPHSLRYNLTVLSWDGSVQSGFLAEVHLDGQPFLRYDRQKCRAKPQGQWAEDVLGNKTWDRETRDLTGNGKDLRMTLAHIKDQKEGLHSLQEIRVCEIHEDNSTRSSQHFYYDGELFLSQNLETEEWTVPQSSRAQTLAMNVRNFLKEDAMKTKTHYHAMHADCLQELRRYLESGVVLRRTVPPMVNVTRSEASEGNITVTCRASSFYPRNIILTWRQDGVSLSHDTQQWGDVLPDGNGTYQTWVATRICRGEEQRFTCYMEHSGNHSTHPVPSGKVLVLQSHW
notes: also called 抗体融合蛋白2A9-MICA; rG7S-MICA
On to B2, for which the equilibrium dissociation constant (Kd) with BCMA-Fc蛋白 [2] is 76 nM; with NKG2D-Fc蛋白, 3470 nM.

(Values after patent CN111333732A (UNIV CHINA PHARMA, dated 2020).)
